Entries after “also recorded” stand apart in the source; their conditions may differ.

Type in all cases: cell-based, human
Experiment [1] has as its system CCR5. Description: CCR5 serine phosphorylation in monocytes (anti-phosphoserine IP, anti-CCR5 immunoblot). The following applies: for MIP-1β-induced CCR5 phosphorylation after preincubation with PKC inhibitor: then MIP-1β 1 min; for serine phosphorylation of CCR5 / time of maximal CCR5 phosphorylation: human monocytes; for serine phosphorylation of CCR5: 37° C. Here is the method:
Monocytes were isolated by counter-flow elutriation from the peripheral blood of normal donors (NIH Clinical Center, Transfusion Medicine Department, Bethesda, Md.) and enriched for mononuclear cells by using counter-flow elutriation. The purity of the cell preparations was examined by morphology after cytospin, and was >90%. The cells were stimulated with different concentrations of chemokines for indicated time periods at 37° C. and lysed for 20 min on ice with periodic mixing in lysis buffer (1% Triton X-100, 20 mM, Tris-HCl pH 8.0, 137 mM NaCl, 15% glycerol, 5 mM EDTA) containing phosphatase and protease inhibitors (1 mM phenylmethylsulfonyl fluoride, 5 μg/ml aprotinin, 5 μg/ml leupeptin, 1 mM sodium orthovanadate, 1 mM EGTA). Cell lysates were precleared with 30 µl of washed Protein-A sepherose beads (Pharmacia Biotech. Piscataway, N.J.), 1 μg of polyclonal anti-phospho-serine antibody (Zymed Laboratory Inc. South San Francisco, Calif.) was added to 200 μg cell lysates diluted with 2×immunoprecipitation (IP) buffer (1×buffer contains 1%Triton X-100, 10 mM Tris-HCl pH 7.4, 137 mM NaCl, 1 mM EDTA, 1 mM EGTA, 0.2 mM sodium orthovanadate, 0.2 mM PMSF, 0.5% NP-40). The reaction mixture was incubated at 4° C. overnight under constant rocking. The immune complex was captured by adding 50 μl of washed Protein-A sepharose beads (25 μl packed beads) and incubation of the reaction mixture at 4° C. for additional 2 hours. The beads were spun down (10 seconds at 14,000 rpm), the pellets were washed 3 times with ice-cold IP buffer, resuspended in 30 μl of 2×Laemmli sample buffer (126 mM Tris-HCl, 20% Glycerol, 4% SDS, 0.005% bromophenol blue with or without addition of 1% 2-mercaptoethanol, Novex, San Diego, Calif.) and boiled for 5 min to elute the immune complex. After electrophoresis on 4-12% SDS-PAGE precast gel (Novex), the proteins were transferred to Immobilon P membranes (Millipore, Bedford, Mass.). The membranes were blocked in freshly prepared PBS containing 3% dry milk 2 h, then were incubated with 1 μg/ml of polyclonal anti-CCR5 antibody (Millenium Biotechnology, Ramona, Calif.) overnight at 4° C. followed by washing 3 times with PBS containing 0.05% Tween 20. The membranes were incubated with a horse radish-peroxidase conjugated goat anti-rabbit IgG (1:5000) (Sigma, St. Louis, Mo.) in PBS containing 3% dry milk for 1 hour at room temperature with agitation. After washing 3 times with PBS-0.05% Tween 20, the membranes were incubated with Super Signal Chemiluminescent Substrate Stable Peroxide Solution (Pierce, Rockford, Ill.) for 1 min, and exposed to BIOMAX-MR film (Eastman Kodak Company, Rochester, N.Y.).
Monocytes stimulated with different concentrations of stimulants for indicated time periods at 37° C. were lysed for 20 min on ice with periodic mixing in lysis buffer [1% Triton X-100, 20 mM Tris-HCl (pH 8.0), 137 mM NaCl, 15% glycerol, 5 mM EDTA] containing phosphatase and protease inhibitors (1 mM phenylmethylsulfonyl fluoride, 5 μg/ml aprotinin, 5 μg/ml leupeptin, 1 mM sodium orthovanadate, 1 mM EGTA). Cell lysates were precleaned with 30 μl of washed Protein A Sepharose beads (15 μl packed beads) at 4° C. for 1 hour and 1 μg of polyclonal anti-phosphoserine antibody was added to 200 μg cell lysates diluted with 2×immunoprecipitation (IP) buffer [1×: 1% Triton X-100, 10 mM Tris-HCl (pH 7.4), 137 mM NaCl, 1 mM EDTA, 1 mM EGTA, 0.2 mM […], 0.2 mM PMSF, 0.5% NP-40]. The reaction mixture was incubated at 4° C. overnight under constant rocking. The immunecomplex was captured by adding 50 μl of washed Protein A sepharose beads (25 μl packed beads) and incubating the reaction mixture at 4° C. for an additional 2 hours. […]
On the technique in general: Immunoblotting shows a protein as a band on a membrane.

Experiment [2] deals with monocytes. The experiment can be described thus: Ca2+ mobilization of monocytes in response to chemokines after preincubation (heterologous desensitization). The note with it: staurosporine 2.5 ng/ml 30 min. The method, then: Calcium mobilization was measured by incubating monocytes (2×10^7/ml) in loading medium (DMEM, 10% FCS) with 5 μM Fura-2 AM (Molecular Probes, Eugene, Oreg.) for 30 min at room temperature in the dark. The dye-loaded cells were washed 3 times and resuspended in saline buffer (138 mM NaCl, 6 mM KCl, 1 mM CaCl2, 10 mM Hepes pH 7.4, 5 mM glucose, 0.1% BSA). The cells were then transferred into quartz cuvettes (2×10^6 cells in 2 ml) which were placed in a luminescence spectrometer (LS-50B, Perkin-Elmer, Beaconsfield, UK). Stimulants at different concentrations were added in a volume of 20 μl to each cuvette at the indicated time points. The ratio of fluorescence at 340 and 380 nm was calculated using a FL-WinLab program (Perkin Elmer). To examine the effect of fMLP, monocytes were preincubated with 10^−6 M fMLP or with medium alone for 60 min at 37° C. The cells were thoroughly washed and then were stained with Fura-2 for the calcium mobilization desensitization. The results are representative of at least three experiments performed.
(§1) Calcium mobilization was measured by incubating 2×10^7/ml cells in loading medium (DMEM, 10% FBS) with 5 μM Fura-2 AM (Molecular Probes, Eugene, Oreg.) for 30 min at room temperature in the dark. The dye-loaded cells were washed 3 times with loading medium and resuspended in saline buffer [138 mM NaCl, 6 mM KCl, 1 mM CaCl2, 10 mM HEPES (pH 7.4), 5 mM Glucose, 0.1% BSA] at a concentration of 1×10^6/ml. The cells were then transferred into quartz cuvettes (2 ml) which were placed in a luminescence spectrometer (LS-50B, Perkin-Elmer, Beaconsfield, England). Stimulants at different concentrations were added in a volume of 20 μl to each cuvette at the indicated time points. The ratio of fluorescence at 340 and 380 nm wavelength was calculated using a FL WinLab program (Perkin-Elmer).

In experiment [3] the test system is monocytes. The experiment can be described thus: Ca2+ mobilization in monocytes (Fura-2). The method, then: as §1
Calcium mobilization was assayed by incubating 2×10^7/ml of monocytes, neutrophils, FPRL1 or FPR transfectants in loading buffer containing 138 mM NaCl, 6 mM KCl, 1 mM CaCl2, 10 mM HEPES (pH 7.4), 5 mM glucose, 0.1% BSA with 5 μM Fura-2 (Sigma) at 37° C. for 30 min. The dye-loaded cells were washed and resuspended in fresh loading buffer. The cells were then transferred into quartz cuvettes (10^6 cells in 2 ml) which were placed in a luminescence spectrometer LS50 B (Perkin-Elmer Limited, Beaconsfield, England). Stimulants at different concentrations were added in a volume of 20 μl to the cuvettes at indicated time points. The ratio of fluorescence at 340 and 380 nm wavelength was calculated using the FL WinLab program (Perkin-Elmer).
(Calcium flux is commonly read through the fluorescence of an indicator in the cells.)

In experiment [4] the test system is CCR5. Description: Surface expression of CCR5 on monocytes by flow cytometry. The note with it: FITC-anti-CCR5 2D7. The method, then:
The change of surface expression of CCR5 on monocytes was monitored by FACS analyses (courtesy of L. […] The cells were then washed twice with DPBS containing 2% BSA and fixed with 1% Paraformaldehyde (Sigma). The fluorescence was measured by flow cytometer (Becton Dickinson, San Jose, Calif.). Results are presented as the percentage of cells stained with anti-CCR5 antibody.

Experiment [5] relates to CCR5. The note with it: HOS/CD4/CCR5 cells co-expressing FPR.

For `CN[C@@H]1C[C@H]2O[C@@](C)([C@@H]1OC)n1c3ccccc3c3c4c(c5c6ccccc6n2c5c31)C(=O)NC4` [staurosporine], the “MIP-1β-induced CCR5 phosphorylation after preincubation with PKC inhibitor” value in the experiment with CCR5 [1] (monocytes) is listed as “did not affect”. Moreover, in the experiment with CCR5 [1] (monocytes, staurosporine 2.5 ng/ml 30 min, then V3 peptide 1.5 μM 60 min), the “V3 peptide-induced CCR5 phosphorylation after pretreatment with PKC inhibitor” value is “no longer significantly induced phosphorylation of CCR5”. Moreover, the “Ca2+ mobilization in response to RANTES or SDF-1α after PKC inhibitor followed by V3 peptide” value in the experiment on monocytes [2] was “almost normal Ca^2+ mobilization”.
MCP-1: chemokine: the “Ca2+ mobilization” value in the experiment with monocytes [3] is “significant Ca^2+ mobilization”.
SDF-1α: the “Ca2+ mobilization” value with monocytes [3] is reported as “significant Ca^2+ mobilization”.
Consider “T20/DP178: synthetic peptide corresponding to a region in the C-terminus of the ectodomain of gp41”, for which, in the experiment with CCR5 [1], the “serine phosphorylation of CCR5” value was “significant and dose-dependent phosphorylation of CCR5”.
Turning to calphostin C, in the experiment on CCR5 [1] (monocytes), the “MIP-1β-induced CCR5 phosphorylation after preincubation with PKC inhibitor” value is on record as “little effect”. Besides, in the experiment on CCR5 [1] (monocytes, calphostin C 50 ng/ml 2.5 h, then fMLP 10^−6 M 60 min), the “fMLP-induced CCR5 phosphorylation after preincubation with PKC inhibitor” value is “markedly reduced”.

B1: MIP-1β: chemokine, CCR5 agonist (protein)
chain: APMGSDPPTACCFSYTARKLPRNFVVDYYETSSLCSQPAVVFQTKRSKQVCADPSESWVQEYVYDLELN
In the case of B1, in the experiment on CCR5 [1], the “time of maximal CCR5 phosphorylation” value amounted to 1 min and the “serine phosphorylation of CCR5” value is reported as “rapidly phosphorylated”. The “expression of CCR5 on the cell surface” value with CCR5 [4] is listed as “downregulated”. In the experiment on monocytes [3], the “Ca2+ mobilization” value is “poor inducer of Ca^2+ flux”.

B2: RANTES: chemokine that activates multiple receptors including CCR5 (protein, UniProt P13501 24-91, looked up)
C-C motif chemokine 5: SPYSSDTTPCCFAYIARPLPRAHIKEYFYTSGKCSNPAVVFVTRKNRQVCANPEKKWVREYINSLEMS
For the molecule B2, in the experiment with CCR5 [1], the “time of maximal CCR5 phosphorylation” value was determined as 1 min and the “serine phosphorylation of CCR5” value is “rapidly phosphorylated”. In addition, the “expression of CCR5 on the cell surface” value with CCR5 [4] was “downregulated”. In the experiment with monocytes [3], the “Ca2+ mobilization” value is “induced a transient rise in Ca^2+; also recorded: significant Ca^2+ mobilization”.

B3: MIP-1α: chemokine that activates multiple receptors including CCR5 (protein, UniProt P10147 24-92, looked up)
C-C motif chemokine 3: SLAADTPTACCFSYTSRQIPQNFIADYFETSSQCSKPGVIFLTKRSRQVCADPSEEWVQKYVSDLELSA
As to B3, in the experiment with CCR5 [1], the “time of maximal CCR5 phosphorylation” value came to 1 min and the “serine phosphorylation of CCR5” value is “rapidly phosphorylated”. Besides, the “expression of CCR5 on the cell surface” value with CCR5 [4] is “downregulated”. In addition, in the experiment with monocytes [3], the “Ca2+ mobilization” value is on record as “induced a transient rise in Ca^2+”. In the experiment on CCR5 [5], the “phosphorylation of CCR5” value is on record as “induced an increase in phosphorylation of CCR5”.

B4: SAA: serum amyloid A, recombinant, purchased from Pepro Tech (protein, UniProt P0DJI8 19-122, looked up)
Serum amyloid A-1 protein: RSFFSFLGEAFDGARDMWRAYSDMREANYIGSDKYFHARGNYDAAKRGPGGAWAAEVITDARENIQRFFGHGAEDSLADQAANEWGRSGKDPNHFRPAGLPEKY
For B4, the “serine phosphorylation of CCR5” value in the experiment with CCR5 [1] was “significant and dose-dependent phosphorylation of CCR5”.

These data come from US6808877B2, “Ligands for FPR class receptors that induce a host immune response to a pathogen or inhibit HIV infection” (priority 2000, dated 2004).
